In experiment [1] the target is T1, mouse TMPRSS6 expressed on HEK293T cells, MoTMPRSS6-(His)6 (mouse, UniProt Q9DBI0 1-811).
T1 construct: HEK293T cells stably expressing the construct; also called murine TMPRSS6
T1 sequence: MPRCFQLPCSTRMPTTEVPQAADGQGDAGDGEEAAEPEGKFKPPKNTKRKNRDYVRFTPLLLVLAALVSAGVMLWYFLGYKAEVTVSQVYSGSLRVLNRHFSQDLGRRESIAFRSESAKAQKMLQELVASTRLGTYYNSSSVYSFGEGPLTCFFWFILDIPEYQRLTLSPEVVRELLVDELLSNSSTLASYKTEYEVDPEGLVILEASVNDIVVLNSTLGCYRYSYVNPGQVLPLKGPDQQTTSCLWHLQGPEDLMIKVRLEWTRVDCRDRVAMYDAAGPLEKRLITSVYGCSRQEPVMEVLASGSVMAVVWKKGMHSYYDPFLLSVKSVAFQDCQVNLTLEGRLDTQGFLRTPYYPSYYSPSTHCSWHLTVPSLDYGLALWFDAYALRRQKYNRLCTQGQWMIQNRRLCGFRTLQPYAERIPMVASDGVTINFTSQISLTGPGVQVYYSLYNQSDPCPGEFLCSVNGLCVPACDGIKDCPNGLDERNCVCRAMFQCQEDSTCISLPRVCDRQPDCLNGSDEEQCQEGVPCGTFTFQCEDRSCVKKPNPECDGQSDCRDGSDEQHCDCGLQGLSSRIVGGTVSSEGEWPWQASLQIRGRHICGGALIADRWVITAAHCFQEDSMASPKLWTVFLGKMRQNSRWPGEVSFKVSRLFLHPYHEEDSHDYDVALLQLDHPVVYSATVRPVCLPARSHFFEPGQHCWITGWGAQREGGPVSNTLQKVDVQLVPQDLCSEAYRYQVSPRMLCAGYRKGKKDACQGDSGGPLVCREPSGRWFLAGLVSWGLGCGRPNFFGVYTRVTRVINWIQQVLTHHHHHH
The experiment in a line: summary of Example 4 (FACS, cell surface ELISA). The protocol:
(§1) Selected anti-TMPRSS6 antibodies were tested to determine whether any are capable of binding to TMPRSS6 from mouse and/or cynomolgus monkey. HEK293T cells stably expressing human TMPRSS6 (HuTMPRSS6-(His)₆) (generated by LakePharma Inc as described above), HEK293T cells stably expressing mouse TMPRSS6 (MoTMPRSS6-(His)₆) (SEQ ID NO: 98) (generated by LakePharma Inc as described above) and HEK293T cells transiently expressing cynomolgus monkey TMPRSS6 (CynoTMPRSS6-(His)₆) (SEQ ID NO: 99) (generated in house) were collected. HEK293T cells stably expressing human TMPRSS6 were used as a positive control and HEK293T cells were used as a negative control (as described above). Cells were blocked with dPBS+3% BSA before incubation with anti-TMPRSS6 antibodies diluted in dPBS+3% BSA. After incubation, cells were washed with dPBS and followed by another incubation with goat anti-mouse IgG conjugated with AlexaFluor-488 as a 2° antibody (Invitrogen). At last, cells were washed with dPBS to remove unbound antibody, re-suspended with dPBS+1 mM EDTA, and then subjected to FACS analysis using a NOVOCYTE® Flow Cytometer (ACEA Biosciences, Inc., San Diego CA). Bound antibody was determined by excitation at 488 nm and measurement of emission (FITC-A) at 530 nm. Results for these assays are shown in histogram plots in FIGS. 4A-4I.
(§2) HEK293T cells stably expressing mouse TMPRSS6 (generated by LakePharma Inc as described above, FIGS. 4J, 4L, 4N, 4P, 4R, 4T) or cynomolgus monkey (generated in house as described above, FIGS. 4K, 4M, 4O, 4Q, 4S, 4U) were fixed with methanol (100%), and washed with dPBS (Dulbecco's phosphate-buffered saline, Corning Cellgro) before incubation with various concentrations of anti-TMPRSS6 antibodies and their humanized variants diluted in BSA medium (DMEM+1% Pen/Strep+10 mM HEPES+1 mg/ml BSA (Sigma-Aldrich)). Purified mouse IgG (FIGS. 4J-4O) or Human IgG1 (FIGS. 4P-4U) was used as a control.
Background: ELISA stands for enzyme-linked immunosorbent assay.

Experiment [2] concerns the target T1, mouse TMPRSS6 expressed on HEK293T …. Kind of experiment: cell surface ELISA on methanol-fixed HEK293T cells expressing mouse TMPRSS6. The protocol:
as §2, with “control. After incubation, cells were washed with BSA medium and then incubated with goat anti-mouse (Invitrogen, FIGS. 4J-4O) or anti-human (Millipore, FIGS. 4P-4U) IgG conjugated with HRP as a 2° antibody. Finally, cells were washed with dPBS to remove unbound antibody and color developed with ELISA liquid substrate (Sigma-Aldrich), followed by stopping the reaction with addition of the same volume of […] 1M H₂SO₄. Bound antibody was measured by absorbance at OD₄₅₀ₙₘ.” for “control.”

For experiment [3] the target is unchanged. The experiment in a line: FACS on HEK293T cells stably expressing MoTMPRSS6-(His)6. The protocol:
as §1

B1: MWTx-001 anti-TMPRSS6 monoclonal antibody (antibody, mouse IgG2a, kappa, V domains shown)
VH: QVQLQQPGAELAKPGASVKMSCKASGYTFTSYWITWVKQRPGQDLEWIGNIYPGSGSTYYNEKFKSKATLTVDTSSRTAYMQLSSLTSADSAVYYCAPYDSDYAMDYWGQGTSVTVSS
VL: DIKMTQSPSSMYASLGERVTITCKASQDINNYLSWFQQKPGKSPKTLIYRANRLVDGVPSRVSGSGSGQDYSLTISSLEYEDVGIYFCLQYDEFPLTFGAGTKLELKR
notes: Mouse monoclonal antibody from hybridoma (ATCC PTA-126759)
As for B1, the binding result in experiment [1] is reported as “binds”.

B2: humanized anti-TMPRSS6 antibody variant hzMWTx-002 Var (antibody, human IgG1, kappa, N297A, V domains shown)
VH: EVQLVQSGAEVKKPGASVKVSCKASGFNIKDYYIHWVRQATGQGLEWMGRIDPEDAESEYAPKFQGRVTITADTSTDTAYMELSSLRSEDTAVYYCTRGDSMMVTYFDYWGQGTLVTVSS
VL: DIQMTQSPSSLSASVGDRVTITCKASQDVSTAVAWYQQKPGKAPKLLIYWAFTRHTGVPSRFSGSGSGTDYALTISSLQPEDFATYYCQQHYRSPWTFGGGTKVEIKR
notes: Human IgG1 / kappa
Regarding B2, the binding result in experiment [2] is “no binding”.

B3: MWTx-003 anti-TMPRSS6 monoclonal antibody (antibody, mouse IgG2b, kappa, V domains shown)
VH: EVQLQQSGAELVKPGASVKLSCTASGFNIEDYYIHWVKERTEQGLEWIGRIDPEDGETTYAPQFQGKATIIPDTSSNTAYMQLSSLTSEDAAVYYCARSIYLDPMDYWGQGTSVTVSS
VL: DIVMTQSHKFMSTSVGDRVSITCKASQDVTTAVAWYQQKPGQSPKILIYWATTRHTGVPDRFTGSISGTTYILTISSVQAEDLALYYCQQHYSTPYTFGGGTKLEIKR
notes: Mouse monoclonal antibody from hybridoma (ATCC PTA-126761); The recombinant version r4K12B has the same HC and LC; also called r4K12B; recombinant MWTx-003
B3: in experiment [1], the binding result was “binds”.

B4: MWTx-002 anti-TMPRSS6 monoclonal antibody (antibody, mouse IgG2b, kappa, V domains shown)
VH: EVQLQQSGAELVKPGASVKLSCTASGFNIKDYYIHWVKERTEQGLEWFGRIDPEDGESEYAPKFQGKATLTADTSSNTAYLQLSSLTSEDTAVYYCTRGDSMMVTYFDYWGQGTTLTVSS
VL: DIVMTQSHKFMSTSVGDRVSITCKASQDVSTAVAWYQQKPGQSPKLLIYWAFTRHTGVPDRFTSTGSGTDYALTISSVQAEDLALYYCQQHYRSPWTFGGGTKLEIKR
notes: Mouse monoclonal antibody from hybridoma (ATCC PTA-126760)
For the molecule B4, the binding result in experiment [3] is “no binding”.

(Values after patent US20250136718A1 (MABWELL THERAPEUTICS, published 2025).)
